Measurements as given in publication PMC8355190.

Target: PKM2 (human (endogenous in H1650)) (UniProt P14618)
Assay: cross-linking

Chain of PKM2, P14618 1-531 (enzyme; other documents disagree on this pair) (P14618 whole entry): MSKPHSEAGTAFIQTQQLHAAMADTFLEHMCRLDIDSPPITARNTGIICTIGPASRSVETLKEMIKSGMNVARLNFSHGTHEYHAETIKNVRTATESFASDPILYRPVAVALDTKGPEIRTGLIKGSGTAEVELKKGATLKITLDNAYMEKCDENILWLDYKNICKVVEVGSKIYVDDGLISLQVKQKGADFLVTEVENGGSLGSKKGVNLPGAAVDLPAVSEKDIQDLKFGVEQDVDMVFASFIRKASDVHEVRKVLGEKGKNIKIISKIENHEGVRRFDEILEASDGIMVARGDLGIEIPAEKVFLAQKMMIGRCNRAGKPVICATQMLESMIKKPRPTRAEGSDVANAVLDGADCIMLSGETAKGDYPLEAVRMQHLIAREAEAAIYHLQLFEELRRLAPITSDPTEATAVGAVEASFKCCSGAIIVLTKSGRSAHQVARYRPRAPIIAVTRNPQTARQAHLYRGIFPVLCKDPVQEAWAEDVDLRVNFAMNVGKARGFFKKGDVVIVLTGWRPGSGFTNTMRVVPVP

stoichiometry N: 2
Substance: PKM2, P14618 1-531 (enzyme; other documents disagree on this pair)
